The domain aggregation screens of Martell et al. (2025)

Assay: soluble fraction after stress (log2 fold change); higher = more stays soluble; pooled small domains, quantitative proteomics
Conditions: stress: 50 degC
Summary of the method: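 Each library was heated to 50°C as a stress step. The libraries, made up of small protein domains, were pooled and analysed at high throughput by quantitative proteomics. The reported value is the base-two logarithm of the fold change in each protein's soluble amount after stress, taken as a measure of aggregation propensity. The higher the value, the more protein stays in solution.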

Going from “HMYDPVNEIGRVLKKIRQERSLTLDNVAEITGVSKTMLGQIERGVSVPTISVLWKIAKGLQVSLSTLLNE” to “HMLSDAAAMESIAYEAIRQMEPDTYYIIGAGTTTRGIMEVLGLKNTLIGVDLIRNKELVANDLGGKELLSY”, the “soluble fraction (log2)” value rises from -0.826 to 0.0353.

Compared with “HMLMYAQDEKEEASNNIPYRLLHMSFTKEQKAELQRAMDVRVPKDIILSYFYPDTPVARMMEIRRQYESA”, “HMSQLTVGTVVTGNASLQTQGLKLPSFASGSRPASPNIGQMIWNSSDAKAQIWNGSEWDDVG” is higher in “soluble fraction (log2)” value: -0.472 for the first, -0.198 for the second.

“HMDIVEIYVGEEDGERIDSYLAQELNNVSRSYVQGLIKNQLITVNGNHVKPKHIVKEGEHIIVNIPPPKV” and “HMDTRSSARKALDAVNLLLETYGAKAYQHSYEIAGRRQQFQTPGDFMAFRSRLMAEVATEENAARINA” are within 0.2 log units of each other in “soluble fraction (log2)” value: 0.24 for the first, 0.152 for the second.

First: HMEYYIMPVANLHKVVVDGKDMSNLISNNAIAVKANVIDEGQIQIKPGEIIITTPAGVSPEEAVRSP
Second: HMRKSAVSSTLTSIEGIGATRAKALLKHFKTVAAVSEADLKELEDAPGMTRPSALRVYEYFHGK
The “soluble fraction (log2)” value of the first is higher: 0.441 for the first, -0.165 for the second.

Going from “HMNSKIIVESIIKSKNGIAKVADLVEGGVSRQSIKKMYADGYIKRISRGYYTLTSEPVSSDEQVISS” to “HMDAAEVEATARAMLRRSALNLLAQREQTAFELKQKLSRRFPEQAALLDEVIERLQEQGLQDDTR”, the “soluble fraction (log2)” value rises from -0.333 to -0.102.

Going from “HMQPQYSVLFSNIEEKDGGSIITLLQQGNVPYKVENGGTTILVPANRANELRLTLAAQGLPK” to “HMSKPIREVAYETLKNAIVTGEIPAGSRIVETEYAERMHISRTPLREALRKLERDGLVEYVVRRGVVVRAF”, the “soluble fraction (log2)” value falls from -0.0124 to -1.54.

First: HMSEVTYQETLRLLRRAIDVLPQQSRQIILLGLSGKNNNEVAEMLGISVNTVKTLKKGAYKSLRNSL
Second: HMSVKLYPNPTRSVTTFATDVDKWYLYDNQGKLVSEGNTKTIDVTAFPVGIYFVKTIKGNNSTFVKLIV
The “soluble fraction (log2)” value of the first is lower: -1.66 for the first, -1.4 for the second.

First: HMTGGMVTYIIEKGEGFFSLERKFGLSENELIKLNPSLKSGLKSEMQINIPKENYDRYVASS
Second: HMELPPLQPGQPIDGRVEQQIRAGYYVVSVRGRGYEFQLPESARPGDLLRMVYLNDHPRLTFALLRIDNAN
The “soluble fraction (log2)” value of the first is higher: -0.0276 for the first, -0.98 for the second.

Going from “HMEFTVFMNSAGGSKLQVVKTVKELTGLGLKEAKAIVDGSPGPVKEGLSKADAEAMLAKLQEAGADVEL” to “HMRMNASERQNQIVDLLSQNGVMKIMDIADHFNVSRETIRRDLIILEDDNRIKKWFGGVISAN”, the “soluble fraction (log2)” value falls from -0.0948 to -0.461.

“HMSTEDYLKTIYILESQQGVHGSDVARMLKVTRPTVSIALKALEQEGYVWMDESRLVHLTDSGLQIAKDT” and “HMNNTIKFSVDSQNSGKRLDIFLTENIKNYTRSFLKKLIENRQVKLNNNFIISPSERVKFKDQININILQ” are within 0.2 log units of each other in “soluble fraction (log2)” value: -1.12 for the first, -1.17 for the second.

“HMTGELEVTAAGLSPEKLLNLAAKNHITLSNVKRLSYTQLSFRIGPADYNRLKKLLPEGRYKLNVGSS” and “HMNNLNDIIEIIRIYAKNYARNNPSWNHSELINRIRDKALGEAEDYNIRLSEEDLALITELSLRGL” are within 0.2 log units of each other in “soluble fraction (log2)” value: -0.289 for the first, -0.474 for the second.

Going from “HMDSILSIVGGEESYKALLAWAENNISQQELQQLETILKSGNVPAIKRVLVTLMNRFNQAQS” to “HMSIYMNIYNEFKKYIIANVYKYDDKLPSVRSIALEYGINPNTVQRAFQLLEDEGYIKTISKKGVYVNYR”, the “soluble fraction (log2)” value falls from -0.147 to -0.781.

Going from “HMPLPLYVQIKESLRGQIFDGTYGEHERLPSENDLMSSFGVSRITVRQALSDLEKEELIFKVPGKGAFVSR” to “HMKSEIRKKNSQIILDAAEHEFSVHGYRGTSVQMIADRSGLPKANLHYYYKSKSALYGAVLDRIL”, the “soluble fraction (log2)” value rises from -1.32 to 0.202.

Going from “HMSFGWETLEGKEGVTDTDLHPSGWVKVGDEKIFVVSQGEFLGKGTDIVVVSVDGNRVVVKELI” to “HMKYEFEFPYWSNKEAKHMIVTINYPNGTRATASIQDNDGSNPDYKRIMEEFGEEQIDANTEEGLKRR”, the “soluble fraction (log2)” value rises from -0.694 to -0.0595.

Going from “HMENKTGEVTVREDSALTLRQGPGTNYEKVGQAYRGDRVDVLEEQNGWYKVKTYDGKEAWASSSYISIV” to “HMYFEDEELDRFVGTPAGAYTEEDVEEFRDVLLSLDIEEVPSWVRSLQLRGIDFPETLRPELYLL”, the “soluble fraction (log2)” value falls from 0.454 to -3.14.

Going from “HMETLKINTHLGTLNLKKRGKKGTWQINIYFKNIEGDNHYRQSTGTNQLELAKAKAMNMITTEYSNRLAGI” to “HMQKDAYVPDIISKLKSSRMIVVEGTIYPLLTRLKNTGLLSYRWEESLQGPPRKYYSITEQG”, the “soluble fraction (log2)” value rises from -1.69 to 0.112.

“HMNMGEKIRSLIGQFGVTSEDLKNLSVANLLIRMNQEAGDSKTKGILASLLETVNKAGVGNLTPDALGIK” and “HMQNSMTTTPDVVGKTGTFAEQMLKAANLNVQFAGDSSGKVVAQDVEAGTSAAYGTIITLTMDS” are within 0.2 log units of each other in “soluble fraction (log2)” value: -0.00161 for the first, 0.14 for the second.

Going from “HMVGDMLTQKDSEGLTAYLYQQGIISQREMLLLNGILKDRVLTGMEKGQRDSVRASMVQHLLAMLNMM” to “HMKDNIRSILEDIPNIGPGRRRALLKHFGSIEAIRRASLEDLIKVDGMNRNAALSIMEYFGM”, the “soluble fraction (log2)” value rises from -0.848 to -0.159.

Compared with “HMKNAYDLKMLVKDNDGNIERNMKYYFFLANGSKVEGITDDNGYTKTITTIQPEKADLHLINDELI”, “HMKNLTERQQRIIALISENPQTTRAEIAGAIGVATKTIERELTTLSNIVYYVGPKKGGHWEIIK” is higher in “soluble fraction (log2)” value: -1.1 for the first, -0.865 for the second.

Compared with “HMSLRVIEIFGTPQQMSARISLMDGSVTDVKVGQSIPGTSYKVASITGNGVWIQNGTAVSYTHL”, “HMQLEPLITSVIPVNFAKAGEVATTIKGKEVGLVSDRGSITAESRTNVLIVKDIKKNVDDISAMVKRLD” is higher in “soluble fraction (log2)” value: -1.3 for the first, 0.123 for the second.

Going from “HMNNFTQSALDTIDGIGKRRKKLLLNHFGSVKLIENASIEDIKKIDGISDLVANKIYNFFNKN” to “HMRPDSFEAGEAEAGSRLDRLLAARLGIPRNQVQQWIGGGRVTVDAEPVRASLVVRAGMRIAWDPPPPP”, the “soluble fraction (log2)” value rises from -0.652 to -0.0768.

Compared with “HMAIWAVFYKNEPFNLKSFNSLTSYPGPKYKKTSFSNPGHALNLAKKLNLTFGTEDFQVVKLTQGTIV”, “HMEKIRIQKYLSERGVMSRRAADSALAEGRIAVNGVTARPGDKIDPSSDTLTIDGRIVTTGTAP” is higher in “soluble fraction (log2)” value: -2.61 for the first, 0.00802 for the second.

“HMDAVTPVLSRIRDARFKRMVLPGDEIEISVTLIDTIGKFFNLSGQIRNKDKISLTVNFALALV” and “HMQQEAVNLVQSRGQQAIEPVHIMQGVMKVGENVTNFIFQKLGMNGQQVALVVDKQIDSLPKVSGGEPYL” are within 0.2 log units of each other in “soluble fraction (log2)” value: -0.0104 for the first, 0.0273 for the second.

Compared with “HMTTTYEINDEMLKPLILEIFNKSKQRFGSTKIAPVLKREGYTASIAKVKTLMNELGIKPVNA”, “HMNTEEKILEKEFLMLYSELGLQPKNIYELMENTGLKYEKLVEMLLQLQLKGLVEQPSYNYYSRL” is lower in “soluble fraction (log2)” value: -0.319 for the first, -1.02 for the second.

“HMGPNPLTEREQEILQLARTGEPVARLAKRLFLSPGTVRNHLSSAIGKLGAANRVEAAQFATERGW” and “HMYSYSGSVINTYKVPVSVVLKDANGSAIASWDLPVDQSLGISAKDIATSSGTIEITGDGVNETKTVTFTK” are within 0.2 log units of each other in “soluble fraction (log2)” value: 0.0816 for the first, -0.0188 for the second.

First: HMPQPEIEIAAVVPYSAGALLSRIHDDGELLAPVEYRGEGVFVHARVPADIEAAMRRGGMLSPAET
Second: HMGPKALLKIPGLQEVDAELLFKEGYKSISAVASADPEMLKAIPGVDEQKVTEWVTGAEQILSQQVNKGA
The “soluble fraction (log2)” value of the first is lower: 0.0913 for the first, 0.342 for the second.

Going from “HMAITYETKVISGVNLRSAPSTSASVYQLIPKGENIHVVQKVNDYWLKVQTKDGKTGYISASSKYTNYIG” to “HMNETVTNQTVLDLLKEGFTSEEIIGAIENSSTRTITYDINFMRQLKAAGADVTLTTYLQKIAKKDM”, the “soluble fraction (log2)” value rises from -0.773 to -0.13.

First: HMARDSYNGVQRTISTLLGQGNYDRAYDVAVGARGQMSKQQWSDVAKRIYEVSGIKIDDSVKY
Second: HMAMPQPVARALHRLGQDISAARRMRRLSQEDLAQRIGTSLSTVRRMEDGYPGTALHTFLRALHML
The “soluble fraction (log2)” value of the first is higher: 0.159 for the first, -0.261 for the second.

“HMEITRDTVIQWLEAERRSQTWLSKQLGVSVQAVSNWLREKNPQTISASAQITIRALMEEDAAK” and “HMKNEYAMVIQVNGKLRGNMLVSADLEQKDIERMALDNEDIKRFISHENDVKKMIFVPKKLINIVT” are within 0.2 log units of each other in “soluble fraction (log2)” value: -0.42 for the first, -0.351 for the second.

Going from “HMYELREGDVVSVRILSQTGQNSYIASFAGGRFSVTSERAFAPGTVFSASVSLKDGTLVLSPL” to “HMKWIEILKSKDGNYALLQDEKDTQFVVASGYNPDAAEDQKWGHGSYFIYWNNKENKAEMLMNAIDLFRYR”, the “soluble fraction (log2)” value falls from -0.568 to -2.11.

Compared with “HMTIYLSENIKRLRLEKELTQETLSEFLGVTSQSVSNWERGESYPDITMLPEIADFFKVSVDELLGVNRAE”, “HMTMTIEITVNGKTKTLVAELSLADLLRDLGMTKGRIAVELNGHIVPRSQFSSKTISNLDSIEIVQ” is lower in “soluble fraction (log2)” value: -0.889 for the first, -3.23 for the second.

“HMDSGINVWASAEGLTITADKDTTVYVYDIYGRTIHTSEVKAGTSDIAINTKGIVIVKANGYTKKII” and “HMPRSREVHVEPGMVLEDVTTGFVGAVIRTEKSAGIYVIELEDRRGRRRSFPLGGGFWLDGRPIIALPPLP” are within 0.2 log units of each other in “soluble fraction (log2)” value: -1 for the first, -1.19 for the second.

First: HMDAVSTMIENLRVKTGKSLADWVGLAKGSGADKHGAMVGWLKSEHGLTHGYANLIAHETFRSAA
Second: HMPGLQSVTPAELKIGMYVILPLAWDEHPFLKNHFLIQSEAQINKIRELGTKGIQIDLSKSHP
The “soluble fraction (log2)” value of the first is higher: 0.0392 for the first, -0.904 for the second.

Going from “HMLGKEVVRAYNISYAIDDKGSLQGDLTAALTGLIPLSKPPVLDQRNRSLYVTATPEQHKDVAALLAKL” to “HMFDLDIEQIANDLKHGVMPNLYGLSLQDALYLLEAKGIRVKVAGSGSVVNQSIKTGAYVGSGSVLKLEL”, the “soluble fraction (log2)” value falls from -0.171 to -1.26.

“HMVDPWLEQVHRASAAYATAHGSARIPTTHPDLGWKVVRVRQRHRKGLLSDEWVAKFEALPGWTWEPK” and “HMPIEQVEVPNLTNMTREEAESTLTSLNLKAQVHEEANEADEGKVFKQGTNTGEMVDEGSTIEIWVS” are within 0.2 log units of each other in “soluble fraction (log2)” value: -0.282 for the first, -0.478 for the second.

First: HMHALSVKFSDEAAKTLPYDILSALRDVLALDPRPGYSRDENKIYRFEYADYNISFSVKDKTLTVLSAEK
Second: HMDIANEQEQIFITAMRNDDFNPILELKMKGYQPSKNVLKSLQPDVSSTTFIAAAKIFQMEGVL
The “soluble fraction (log2)” value of the first is lower: -0.384 for the first, -0.144 for the second.

First: HMVELVKVPALQGETVDEAIADIKDAGLEPGQVRYVESDLPKDTVTYQSVDAGEQVKAGTVINLQASKGP
Second: HMKKGRIGSIIQYVREHPGVSSSEIITGLGLDISPATIRRDLTLLVAENKLSVEGQNKGTKYFVSPTYDMF
The “soluble fraction (log2)” value of the first is higher: 0.251 for the first, -0.323 for the second.

First: HMEAGTEYVERAADYIRSHFQEDLTVSKLALYVGLNRSYLTTVFQNTLHVSPQQFLMRFRMERAAQLLD
Second: HMKYSELLLEIILQSKEHPTAEQIFIEAKKRNPKIVQATVYNNLKNLLAQGRVIRISNPGQPDRYDNT
The “soluble fraction (log2)” value of the first is higher: 0.0719 for the first, -0.401 for the second.
